Measured values from paper PMC12930632, “Free fatty acid receptor 2 allosterism is defined by cellular context” (Cell Communication and Signaling : CCS, 2026).
Where two headings read alike, the source gives them in different places. One block for each compound: values may come before it.

What was measured:
[1] = target: T1, free fatty acid receptor 2 (FFA2R; GPR43), WT (human) (UniProt O15552)
T1 sequence: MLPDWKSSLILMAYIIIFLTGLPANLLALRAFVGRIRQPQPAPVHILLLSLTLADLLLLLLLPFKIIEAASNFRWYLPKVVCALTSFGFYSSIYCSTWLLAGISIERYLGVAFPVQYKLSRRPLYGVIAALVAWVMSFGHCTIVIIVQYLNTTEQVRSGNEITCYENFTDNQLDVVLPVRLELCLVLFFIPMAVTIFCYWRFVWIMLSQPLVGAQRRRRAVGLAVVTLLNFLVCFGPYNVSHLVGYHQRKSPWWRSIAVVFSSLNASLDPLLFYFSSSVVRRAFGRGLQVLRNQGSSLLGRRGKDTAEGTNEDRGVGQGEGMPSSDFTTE

[2] = target: T1, free fatty acid receptor 2 (FFA2R; GPR43), WT (human); remark: listed apart in the source
[3] = target: T1, free fatty acid receptor 2 (FFA2R; GPR43), WT (human); remark: listed apart in the source
FFA2R (GPR43) = target: T2, FFA2R (GPR43) (Homo sapiens, UniProt O15552); experiment: ebBRET effector membrane translocation assay (Rap1GAP-RlucII / rGFP-CAAX), Galpha-i1 activation; assay type: cell-based
T2 construct: gene FFAR2; full-length WT receptor, transiently transfected in HEK293T cells together with a defined Galpha subunit, Rap1GAP-RlucII and rGFP-CAAX; plasmid from cDNA.org
T2 sequence (O15552 1-330): T1 sequence
Source text: ebBRET effector membrane translocation assay (Rap1GAP-RlucII / rGFP-CAAX), Galpha-i1 activation on FFA2R (GPR43)

β-arrestin1-RlucII, sequence (P49407 whole entry): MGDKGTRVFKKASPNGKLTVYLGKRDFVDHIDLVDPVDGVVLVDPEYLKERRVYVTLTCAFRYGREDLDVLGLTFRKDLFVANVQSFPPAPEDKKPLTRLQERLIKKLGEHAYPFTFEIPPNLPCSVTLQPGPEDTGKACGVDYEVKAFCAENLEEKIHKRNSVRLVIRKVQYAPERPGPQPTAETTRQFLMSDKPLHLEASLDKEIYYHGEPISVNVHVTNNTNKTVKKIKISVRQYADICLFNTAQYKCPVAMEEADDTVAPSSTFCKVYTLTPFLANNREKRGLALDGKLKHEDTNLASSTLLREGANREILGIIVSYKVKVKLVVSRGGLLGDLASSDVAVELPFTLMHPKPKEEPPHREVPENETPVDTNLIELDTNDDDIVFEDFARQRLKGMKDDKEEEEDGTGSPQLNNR
β-arrestin2-RlucII, sequence (P32121 whole entry): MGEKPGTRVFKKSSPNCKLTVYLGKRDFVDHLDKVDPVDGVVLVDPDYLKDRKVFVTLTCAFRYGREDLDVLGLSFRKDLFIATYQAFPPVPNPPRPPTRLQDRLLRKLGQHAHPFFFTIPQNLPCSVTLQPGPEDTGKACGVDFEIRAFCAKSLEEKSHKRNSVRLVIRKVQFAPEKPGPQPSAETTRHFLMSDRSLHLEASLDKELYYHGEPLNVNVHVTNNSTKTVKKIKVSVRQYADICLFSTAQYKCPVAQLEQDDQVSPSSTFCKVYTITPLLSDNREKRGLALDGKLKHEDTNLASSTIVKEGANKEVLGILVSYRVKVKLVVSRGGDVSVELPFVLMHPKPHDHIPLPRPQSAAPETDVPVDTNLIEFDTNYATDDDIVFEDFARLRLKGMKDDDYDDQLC

Compound: Cc1nc(NC(=N)N)sc1-c1cccc(NC(=O)c2ccc(F)cc2)c1 [AZ1729]
EC50 (FFA2R (GPR43); read-out: AZ1729 / EC50): 0.041 µM

Compound: Gαi1 (from UniProt P63096 1-354) (natural protein)
ebBRET (EMTA) max response, Rap1GAP-RlucII + rGFP-CAAX, HEK293T; AZ1729 series, alone [1]: 0.584 ∆BRET^2
ebBRET (EMTA) max response, Rap1GAP-RlucII + rGFP-CAAX, HEK293T; Cmp58 + AZ1729 series, no propionate [1]: 0.6 ∆BRET^2
ebBRET (EMTA) max response, Rap1GAP-RlucII + rGFP-CAAX, HEK293T; Cmp58 series, alone [1]: 0.525 ∆BRET^2
ebBRET (EMTA) max response, Rap1GAP-RlucII + rGFP-CAAX, HEK293T; propionate series after AZ1729 (1 µM, 5 min), vehicle and modulator-alone signals subtracted [2]: 0.817 ∆BRET^2
ebBRET (EMTA) max response, Rap1GAP-RlucII + rGFP-CAAX, HEK293T; propionate series after Cmp58 (1 µM, 5 min), vehicle and modulator-alone signals subtracted [2]: 0.841 ∆BRET^2
ebBRET (EMTA) max response, Rap1GAP-RlucII + rGFP-CAAX, HEK293T; propionate series up to 1 mM [3]: 0.755 ∆BRET^2

Compound: CC(C)(C)[C@H](C(=O)Nc1ncc(-c2ccccc2)s1)c1ccc(Cl)cc1 [Cmp58, (S)-2-(4-chlorophenyl)-3,3-dimethyl-N-(5-phenylthiazol-2-yl)butanamide]
EC50 (FFA2R (GPR43); read-out: Cmp58 / EC50): 2.28 µM

Compound: GαoB (from UniProt P09471-2 1-354) (natural protein)
ebBRET (EMTA) max response, Rap1GAP-RlucII + rGFP-CAAX, HEK293T; AZ1729 series, alone [1]: 0.994 ∆BRET^2
ebBRET (EMTA) max response, Rap1GAP-RlucII + rGFP-CAAX, HEK293T; Cmp58 + AZ1729 series, no propionate [1]: 0.937 ∆BRET^2
ebBRET (EMTA) max response, Rap1GAP-RlucII + rGFP-CAAX, HEK293T; Cmp58 series, alone [1]: 0.742 ∆BRET^2
ebBRET (EMTA) max response, Rap1GAP-RlucII + rGFP-CAAX, HEK293T; propionate series after AZ1729 (1 µM, 5 min), vehicle and modulator-alone signals subtracted [2]: 1.62 ∆BRET^2
ebBRET (EMTA) max response, Rap1GAP-RlucII + rGFP-CAAX, HEK293T; propionate series after Cmp58 (1 µM, 5 min), vehicle and modulator-alone signals subtracted [2]: 1.48 ∆BRET^2
ebBRET (EMTA) max response, Rap1GAP-RlucII + rGFP-CAAX, HEK293T; propionate series up to 1 mM [3]: 1.81 ∆BRET^2

Compound: Gα14 (from UniProt O95837 1-355) (natural protein)
ebBRET (EMTA) max response, p63RhoGEF-RlucII + rGFP-CAAX, HEK293T; AZ1729 series, alone [1]: 0.614 ∆BRET^2
ebBRET (EMTA) max response, p63RhoGEF-RlucII + rGFP-CAAX, HEK293T; Cmp58 series, alone [1]: 0.195 ∆BRET^2
ebBRET (EMTA) max response, p63RhoGEF-RlucII + rGFP-CAAX, HEK293T; propionate series up to 1 mM [3]: 0.677 ∆BRET^2

Compound: Gα11 (from UniProt P29992 1-359) (natural protein)
ebBRET (EMTA) max response, p63RhoGEF-RlucII + rGFP-CAAX, HEK293T; Cmp58 series, alone [1]: 0.33 ∆BRET^2
ebBRET (EMTA) max response, p63RhoGEF-RlucII + rGFP-CAAX, HEK293T; propionate series after AZ1729 (1 µM, 5 min), vehicle and modulator-alone signals subtracted [2]: 1.36 ∆BRET^2
ebBRET (EMTA) max response, p63RhoGEF-RlucII + rGFP-CAAX, HEK293T; propionate series after Cmp58 (1 µM, 5 min), vehicle and modulator-alone signals subtracted [2]: 1.41 ∆BRET^2
ebBRET (EMTA) max response, p63RhoGEF-RlucII + rGFP-CAAX, HEK293T; propionate series up to 1 mM [3]: 1.82 ∆BRET^2

Compound: Gαi3 (from UniProt P08754 1-354) (natural protein)
ebBRET (EMTA) max response, Rap1GAP-RlucII + rGFP-CAAX, HEK293T; AZ1729 series, alone [1]: 0.553 ∆BRET^2
ebBRET (EMTA) max response, Rap1GAP-RlucII + rGFP-CAAX, HEK293T; Cmp58 + AZ1729 series, no propionate [1]: 0.485 ∆BRET^2
ebBRET (EMTA) max response, Rap1GAP-RlucII + rGFP-CAAX, HEK293T; Cmp58 series, alone [1]: 0.574 ∆BRET^2
ebBRET (EMTA) max response, Rap1GAP-RlucII + rGFP-CAAX, HEK293T; propionate series after AZ1729 (1 µM, 5 min), vehicle and modulator-alone signals subtracted [2]: 0.533 ∆BRET^2
ebBRET (EMTA) max response, Rap1GAP-RlucII + rGFP-CAAX, HEK293T; propionate series after Cmp58 (1 µM, 5 min), vehicle and modulator-alone signals subtracted [2]: 0.485 ∆BRET^2
ebBRET (EMTA) max response, Rap1GAP-RlucII + rGFP-CAAX, HEK293T; propionate series up to 1 mM [3]: 0.859 ∆BRET^2

Compound: GαoA (from UniProt P09471 1-354) (natural protein)
ebBRET (EMTA) max response, Rap1GAP-RlucII + rGFP-CAAX, HEK293T; AZ1729 series, alone [1]: 0.19 ∆BRET^2
ebBRET (EMTA) max response, Rap1GAP-RlucII + rGFP-CAAX, HEK293T; Cmp58 series, alone [1]: 0.237 ∆BRET^2
ebBRET (EMTA) max response, Rap1GAP-RlucII + rGFP-CAAX, HEK293T; propionate series up to 1 mM [3]: 0.415 ∆BRET^2

Continued, values first:

ebBRET (EMTA) max response, p63RhoGEF-RlucII + rGFP-CAAX, HEK293T; AZ1729 series, alone [1]: 0.337 ∆BRET^2
ebBRET (EMTA) max response, p63RhoGEF-RlucII + rGFP-CAAX, HEK293T; Cmp58 + AZ1729 series, no propionate [1]: 0.121 ∆BRET^2
ebBRET (EMTA) max response, p63RhoGEF-RlucII + rGFP-CAAX, HEK293T; Cmp58 series, alone [1]: 0.132 ∆BRET^2
ebBRET (EMTA) max response, p63RhoGEF-RlucII + rGFP-CAAX, HEK293T; propionate series after AZ1729 (1 µM, 5 min), vehicle and modulator-alone signals subtracted [2]: 1.04 ∆BRET^2
ebBRET (EMTA) max response, p63RhoGEF-RlucII + rGFP-CAAX, HEK293T; propionate series after Cmp58 (1 µM, 5 min), vehicle and modulator-alone signals subtracted [2]: 1.01 ∆BRET^2
ebBRET (EMTA) max response, p63RhoGEF-RlucII + rGFP-CAAX, HEK293T; propionate series up to 1 mM [3]: 1.55 ∆BRET^2
Compound: Gαq (from UniProt P50148 1-359) (natural protein)

ebBRET (EMTA) max response, PDZ-RhoGEF-RlucII + rGFP-CAAX, HEK293T; propionate series up to 1 mM [3]: 0.588 ∆BRET^2
Compound: Gα13 (from UniProt Q14344 1-377) (natural protein)

ebBRET (EMTA) max response, Rap1GAP-RlucII + rGFP-CAAX, HEK293T; AZ1729 series, alone [1]: 0.664 ∆BRET^2
ebBRET (EMTA) max response, Rap1GAP-RlucII + rGFP-CAAX, HEK293T; Cmp58 + AZ1729 series, no propionate [1]: 0.59 ∆BRET^2
ebBRET (EMTA) max response, Rap1GAP-RlucII + rGFP-CAAX, HEK293T; Cmp58 series, alone [1]: 0.567 ∆BRET^2
ebBRET (EMTA) max response, Rap1GAP-RlucII + rGFP-CAAX, HEK293T; propionate series after AZ1729 (1 µM, 5 min), vehicle and modulator-alone signals subtracted [2]: 0.481 ∆BRET^2
ebBRET (EMTA) max response, Rap1GAP-RlucII + rGFP-CAAX, HEK293T; propionate series after Cmp58 (1 µM, 5 min), vehicle and modulator-alone signals subtracted [2]: 0.74 ∆BRET^2
ebBRET (EMTA) max response, Rap1GAP-RlucII + rGFP-CAAX, HEK293T; propionate series up to 1 mM [3]: 0.865 ∆BRET^2
Compound: Gαi2 (from UniProt P04899 1-355) (natural protein)

ebBRET max response, β-arrestin1-RlucII + rGFP-CAAX (with or without GRK2), HEK293T; AZ1729 series, alone [1]: 0.166 ∆BRET^2
ebBRET max response, β-arrestin1-RlucII + rGFP-CAAX (with or without GRK2), HEK293T; Cmp58 series, alone [1]: 0.0827 ∆BRET^2
ebBRET max response, β-arrestin1-RlucII + rGFP-CAAX (with or without GRK2), HEK293T; propionate series up to 1 mM [3]: 0.23 ∆BRET^2
Compound: β-arrestin1-RlucII (from UniProt P49407 1-418) (natural protein)

ebBRET (EMTA) max response, p63RhoGEF-RlucII + rGFP-CAAX, HEK293T; AZ1729 series, alone [1]: 0.74 ∆BRET^2
ebBRET (EMTA) max response, p63RhoGEF-RlucII + rGFP-CAAX, HEK293T; Cmp58 + AZ1729 series, no propionate [1]: 0.43 ∆BRET^2
ebBRET (EMTA) max response, p63RhoGEF-RlucII + rGFP-CAAX, HEK293T; Cmp58 series, alone [1]: 0.588 ∆BRET^2
ebBRET (EMTA) max response, p63RhoGEF-RlucII + rGFP-CAAX, HEK293T; propionate series after AZ1729 (a lower concentration than 1 µM, not given), vehicle and modulator-alone signals subtracted [2]: 0.533 ∆BRET^2
ebBRET (EMTA) max response, p63RhoGEF-RlucII + rGFP-CAAX, HEK293T; propionate series after Cmp58 (a lower concentration than 1 µM, not given), vehicle and modulator-alone signals subtracted [2]: 0.503 ∆BRET^2
ebBRET (EMTA) max response, p63RhoGEF-RlucII + rGFP-CAAX, HEK293T; propionate series up to 1 mM [3]: 0.68 ∆BRET^2
Compound: Gα15 (from UniProt P30679 1-374) (natural protein)

ebBRET (EMTA) max response, Rap1GAP-RlucII + rGFP-CAAX, HEK293T; propionate series up to 1 mM [3]: 0.757 ∆BRET^2
Compound: Gαz (from UniProt P19086 1-355) (natural protein)

ebBRET max response, β-arrestin2-RlucII + rGFP-CAAX (with or without GRK2), HEK293T; propionate series after AZ1729 (1 µM, 5 min), vehicle and modulator-alone signals subtracted [2]: 0.775 ∆BRET^2
ebBRET max response, β-arrestin2-RlucII + rGFP-CAAX (with or without GRK2), HEK293T; propionate series after Cmp58 (1 µM, 5 min), vehicle and modulator-alone signals subtracted [2]: 0.774 ∆BRET^2
ebBRET max response, β-arrestin2-RlucII + rGFP-CAAX (with or without GRK2), HEK293T; propionate series up to 1 mM [3]: 0.799 ∆BRET^2
Compound: β-arrestin2-RlucII (from UniProt P32121 1-409) (natural protein)
